Columns and labels:
apo UnaG protein = target: T1, apo UnaG protein (Anguilla japonica, UniProt P0DM59); assay: Reconstruction of apo UnaG protein using bilirubin or bilirubin analog, fluorescence intensity; type: binding, Japanese eel (Anguilla japonica); details: 0.5 μM apo UnaG, ligand 0.125-2.0 μM, 30 min room temperature, excitation 497 nm / emission 527 nm
T1 construct: GST (N, cleaved yes); made in house; host or cells: Escherichia coli BL21 (DE3)
Protocol: Bilirubin or a bilirubin analog, biliverdin (Toronto Research Chemicals), urobilin (MP Biomedicals), or ditaurobilirubin (Frontier Scientific), was diluted with PBS such that the final concentration was 0.125 μM, 0.25 μM, 0.5 μM, 1.0 μM, or 2.0 μM and was mixed with 0.5 μM apo UnaG protein. The mixture was left to stand at room temperature for 30 min. Subsequently, 200 μL of the mixture was added to each well of a 96 well microplate (Greiner Bio-One) and was subjected to measurement of the fluorescence intensity at a wavelength of 527 nm with excitation light having a wavelength of 497 nm using EnSpire multi-mode plate reader (PerkinElmer Co., Ltd.).

mammalian cell HEK293T = assay: Expression of recombinant UnaG protein in mammalian cells, fluorescence microscopy; type: cell-based; details: fluorescence microscope
Excerpt: DNA to be inserted to an expression vector for mammalian cell was amplified by PCR using full-length cDNA of the UnaG gene of SEQ ID NO: 2 as template DNA, a sense primer (SEQ ID NO: 24), and an antisense primer (SEQ ID NO: 25). A FLAG-tag sequence (SEQ ID NO: 26) was inserted into the KpnI restriction enzyme site and the BamHI restriction enzyme site of expression vector pcDNA3 (Invitrogen) for mammalian cell, and the amplified DNA fragment was ligated to the BamHI restriction enzyme site and the EcoRI restriction enzyme site of the resulting pcDNA3-FLAG vector and transformed into Escherichia coli strain DH5α for cloning. The vector was extracted from Escherichia coli and was purified. The sequence was confirmed by DNA sequence analysis. Thus, a UnaG expression vector (pcDNA3-FLAG-UnaG) for mammalian cells was constructed. […]
After the expression of protein, the medium was removed from each dish, and the cells were rinsed with PBS. […] The purified FLAG-UnaG protein (holo form) was irradiated with a UV transilluminator for verifying whether fluorescence was present or not. […]
FIG. 1 includes diagrams showing expression of recombinant UnaG protein in Escherichia coli and mammalian cells. […] The diagram (c) includes a differential interference image and a fluorescence image by observation of mammalian cell HEK293T expressing recombinant UnaG protein under a fluorescence microscope. […]

[1] = Evaluation of aggregability of protein by dynamic light scattering particle diameter; type: physicochemical; details: wild-type 10 mg/mL, R82EK84E mutant 8.5 mg/mL
Protocol: Protein solutions (each 20 μL) of wild-type UnaG protein (10 mg/mL) and R82EK84E mutated UnaG protein (8.5 mg/mL) were each supplied to Microtrac particle size analyzer MT3000II (Nikkiso Co., Ltd.), and the particle diameters were measured by a dynamic light scattering. The aggregability was evaluated by plotting frequency against particle diameter.

B1: UnaG: fluorescent polypeptide including the amino acid sequence of SEQ ID NO: 1, originally isolated from Japanese eel; fluoresces in the presence of bilirubin (protein, listed as Anguilla japonica)
chain: MVEKFVGTWKIADSHNFGEYLKAIGAPKELSDGGDATTPTLYISQKDGDKMTVKIENGPPTFLDTQVKFKLGEEFDEFPSDRRKGVKSVVNLVGEKLVYVQKWDGKETTYVREIKDGKLVVTLTMGDVVAVRSYRRATE
In the case of B1, the “fluorescence of UnaG on addition of ligand (specificity)” value (apo UnaG protein) is reported as “specific to bilirubin”, the “fluorescence of expressed protein in cells” value (mammalian cell HEK293T) is reported as “emitted fluorescence” and the “particle diameter distribution (peaks)” value [1] is reported as “two peaks of different particle diameter distribution ranges”.

Source: patent US9957308B2, “Method for detecting bilirubin using a fluorescent protein” (RIKEN, priority 2013, dated 2018)
